In patent publication US6841385B2, “Transcription factor E2F DNA-binding domain inhibitor peptides and their use” (Topotarget UK Limited, priority 1999, dated 2005):
One block for each molecule: values may come before it. Ends that are not written are not given here. Peptide text beside a SMILES is read from it.

What was measured:
recombinant E2F1 and DP1 = target: T1, recombinant E2F1 and DP1 (Homo sapiens, UniProt Q01094); assay: Band shift assay with recombinant E2F1 and DP1, B-myb E2F-binding site as probe; settings: for IC50: B-myb E2F-binding site as probe, read-out: IC50, inhibition of DNA binding; for inhibition: SEQ ID NO: 2 Alanine-scanning
T1 construct: Purified E2F1 N1-His (64-301) and DP1 N2-GST (84-249) were incubated at 10 μg/ml; His; made in house; host or cells: E. coli BL21 DE3 (pET28b) for E2F1
T1 sequence (Q01094 64-301): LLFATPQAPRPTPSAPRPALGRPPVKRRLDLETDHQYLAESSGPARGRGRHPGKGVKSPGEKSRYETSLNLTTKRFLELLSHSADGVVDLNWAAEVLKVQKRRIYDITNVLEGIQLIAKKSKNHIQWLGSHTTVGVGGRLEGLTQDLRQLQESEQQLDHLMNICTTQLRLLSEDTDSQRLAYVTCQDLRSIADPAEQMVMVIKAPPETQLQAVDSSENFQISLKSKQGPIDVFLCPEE
T1 sequence (Q14186 84-249 partner): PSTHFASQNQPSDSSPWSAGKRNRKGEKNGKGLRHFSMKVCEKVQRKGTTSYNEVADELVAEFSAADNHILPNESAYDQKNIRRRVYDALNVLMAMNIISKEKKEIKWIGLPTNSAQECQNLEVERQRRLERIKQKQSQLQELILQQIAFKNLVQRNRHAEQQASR
Protocol: N-terminal fragments of human E2F1 (aa 64-301), E2F2 (aa 69-306), E2F3 (aa 128-356), E2F4 (aa 1-198), E2F5 (aa 42-233) were cloned into bacterial expression vector pET28b (Novagen) and were purified from BL21 DE3 cells by immobilised metal-affinity chromatography. A N-terminal fragment of DP1 (aa 85-249) was expressed as GST fusion protein and purified by glutathione-affinity chromatography.
Purified E2F1 N1-His (64-301) and DP1 N2-GST (84-249) were incubated at 10 μg/ml in a buffer containing 10 mM HEPES, […], 1 mM EDTA, […], 33 mg/ml BSA and 0.1 μg of sonicated salmon sperm for 10 minutes on ice. ^32P-labelled probe was added and the reaction mixture was incubated at room temperature for 20 minutes. Probes were labelled by filling-in 5′ overhanging ends of 4-7 bases. Samples were run on 4% non denaturing polyacrylamide gel in 0.5% TBE at 4° C. Gels were exposed to X-ray films. Nuclear extract (3 μg) was incubated in 17 μl buffer containing 0.3 M NaCl, 0.4 M Tris pH 7.9, 100 mM EDTA, 0.4 M DTT, 13% glycerol, 1 μg of sonicated salmon sperm on ice. The samples were then incubated for 10 minutes at 30° C. and cooled on ice. ^32P-labelled probe was added, the reaction mixtures were incubated for another 10 minutes at 30° C. and then cooled on ice.
• B-myb: (5′-[…]) (SEQ ID NO:16) • NF-Y: 5′-ATTTTTCTGATTTGGTTAA (SEQ ID NO:17) • Spl: 5′-ATGGGGCGGAGA (SEQ ID NO:18) • ATF: 5′-[…] (SEQ ID NO:19) Introduction of Peptides into Mammalian Cells
The inhibitory potential of the peptides on E2F function was analysed in band shift assays with recombinant E2F1 and DP1. […] The IC50 concentrations for the 3 peptides were in the range of 50-100 μM. Inhibition to various extends was also observed using recombinant fragments of E2F2, E2F3, E2F4, E2F5, respectively. Approximately 100-fold lower IC50 values were found with a branched molecule consisting of 4 copies of SEQ ID NO:2 linked by MAP (multiple antigen peptide).

HeLa cells = assay: BrdU incorporation cell proliferation assay, HeLa cells; type: cell-based; settings: 24 hrs, dose-dependent
Protocol: (§1) HeLa cells were grown in Dulbecco's Modified Eagle's Medium (DMEM) supplemented with fetal calf serum (FCS) and HL60 cells in RPMI 1640 supplemented with 10% FCS. Cells were treated with peptides in culture medium and incubated overnight before harvesting.
The peptides were tested in further experiments for their effect on cell cycle progression and cell viability. For this purpose, the peptides were conjugated at their C-terminus to a cell penetrating HIV-Tat derived peptide (aa 48-60) (Fawell et al. (1994) Proc. Natl. Acad. Sci. USA 91, 664-668).
(§2) HeLa, 3T3, W138 cells were treated with varying concentration of MAP-4-SEQ ID NO:2-TAT and a control peptide MAP-4-SEQ ID NO:39-TAT wherein SEQ ID NO:39 is SEQ ID NO:2 but containing 2 alanine substitutions at positions 1 and 4, i.e. AVRAHF (SEQ ID NO:39) DNA replication was analysed by BrdU incorporation after 24 hours.
(§3) Four tumor cell lines U2OS (osteosarcoma), C33A (cervical carcinoma), HeLa (cervical carcinoma) and E2F4/ras (derived from primary rat embryo fibroblasts) were treated with the branched peptide MAP-4-SEQ ID NO:2-TAT or mutant control peptide MAP-4-SEQ ID NO:39-TAT for 24 hrs. Cell proliferation was measured using the BrDU proliferation assay from Boehringer Mannheim (Cat No. 1 647 229).

U2OS (osteosarcoma) = assay: BrDU proliferation assay, U2OS cells; type: cell-based; settings: 24 hrs, dose-dependent
Protocol: as §3

[1] = tested on: E2F4/ras (derived from primary rat embryo fibroblasts); assay: BrDU proliferation assay, E2F4/ras cells; type: cell-based; settings: 24 hrs, dose-dependent
Protocol: as §3

CycA promoter = assay: Transcription from the CycA promoter, HeLa cells transiently transfected with CycA-Luciferase construct; type: cell-based
Description: This finding is in agreement with the anti-repressor function of E2F in the CycA promoter, (Liu et al, Oncogene (1998), 16, 2957-2963).

HL60 cells [2] = assay: Nuclease-laddering assay (DNA laddering) in HL60 cells; type: cell-based
Protocol: Treated cells were collected, washed with PBS, resuspended in lysis buffer (50 mM Tris pH 7.9, 100 mM EDTA, pH 8, 100 mM NaCl, 1% SDS) and 500 μg/ml proteinase K and incubated at 55° C. for 18 h. Cells were then incubated with […] for 1 hour at 37° C., genomic DNA was purified and examined by agarose gel electrophoresis.
(§4) Effects became visible after 5-24 hours defending on the concentration of the peptide.

HL60 cells [3] = assay: Apoptosis, staining of HL60 cells with Heochst 33342 propidium iodide; type: cell-based
Protocol: as §4

HL60 cells [4] = assay: Growth of HL60 cells treated with peptide; type: cell-based; settings: HL60 cells, concentrations between 1-5 μM
Protocol: as §1, §2, §4

[5] = tested on: C33A (cervical carcinoma); assay: BrDU proliferation assay, C33A cells; type: cell-based; settings: 24 hrs, dose-dependent
Protocol: as §3

[6] = target: T2, recombinant E2F1 N1-His (64-301) with DP1 N2-GST (84-249) (human, UniProt Q01094 64-301; Q14186 84-249); assay: deletion analysis; grade of inhibition of E2F DNA binding (band shift)
T2 construct: range 64-301;range 84-249; Both proteins were incubated together at 10 ug/ml in the band shift assay with a 32P-labelled B-myb E2F-site probe; also called recombinant E2F1 and DP1; not shown: His tag from vector pET28b; GST fusion partner
T2 sequence (Q01094 64-301, chain 1 of 2): as the sequence (Q01094 64-301) above
T2 sequence (Q14186 84-249, chain 2 of 2): as the sequence (Q14186 84-249 partner) above

[7] = target: T2, recombinant E2F1 N1-His (64-301) with …; assay: alanine scanning; grade of inhibition of E2F DNA binding (band shift)
Protocol: (§5) Probes were labelled by filling-in 5' overhanging ends of 4–7 bases. Samples were run on 4% non denaturing polyacrylamide gel in 0.5% TBE at 4° C. Gels were exposed to X-ray films. […] The samples were then incubated for 10 minutes at 30° C. and cooled on ice. ^32P-labelled probe was added, the reaction mixtures were incubated for another 10 minutes at 30° C. and then cooled on ice.

[8] = target: E2F in HeLa cells (nuclear extracts; endogenous E2F in transfected HeLa cells); assay: band shift with HeLa nuclear extract; inhibition of E2F DNA binding
[9] = target: E2F in nuclear extracts from F9 embryonal carcinoma cells; assay: band shift with F9 nuclear extract; inhibition of E2F DNA binding
[10] = target: T2, recombinant E2F1 N1-His (64-301) with …; assay: alanine scanning; grade of inhibition of E2F DNA binding (band shift); remark: listed apart in the source
Protocol: as §5

[11] = target: E2F4 overexpressed in stable transfected 3T3 cells (nuclear extract) (UniProt Q16254 2-413, limits assumed); assay: band shift, extract of 3T3 cells overexpressing E2F4; inhibition of DNA binding
Chain of E2F4 overexpressed in stable transfected 3T3 cells (nuclear extract) (Q16254 2-413 limits assumed): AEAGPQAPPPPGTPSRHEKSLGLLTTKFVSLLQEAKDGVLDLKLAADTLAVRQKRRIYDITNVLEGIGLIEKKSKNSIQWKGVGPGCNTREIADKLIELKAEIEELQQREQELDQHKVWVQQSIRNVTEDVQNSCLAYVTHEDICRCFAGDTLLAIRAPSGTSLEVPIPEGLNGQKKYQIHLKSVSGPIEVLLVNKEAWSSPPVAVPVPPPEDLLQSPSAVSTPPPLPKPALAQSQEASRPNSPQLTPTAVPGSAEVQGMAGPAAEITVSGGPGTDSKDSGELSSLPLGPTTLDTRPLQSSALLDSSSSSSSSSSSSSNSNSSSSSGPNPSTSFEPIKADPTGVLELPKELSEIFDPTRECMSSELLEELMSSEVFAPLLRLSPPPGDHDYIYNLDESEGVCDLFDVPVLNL
Protocol: as §5

[12] = target: E2F2 overexpressed in stable transfected 3T3 cells (nuclear extract) (UniProt Q14209 1-437, limits assumed); assay: band shift, extract of 3T3 cells overexpressing E2F2; inhibition of DNA binding
Chain of E2F2 overexpressed in stable transfected 3T3 cells (nuclear extract) (Q14209 whole entry): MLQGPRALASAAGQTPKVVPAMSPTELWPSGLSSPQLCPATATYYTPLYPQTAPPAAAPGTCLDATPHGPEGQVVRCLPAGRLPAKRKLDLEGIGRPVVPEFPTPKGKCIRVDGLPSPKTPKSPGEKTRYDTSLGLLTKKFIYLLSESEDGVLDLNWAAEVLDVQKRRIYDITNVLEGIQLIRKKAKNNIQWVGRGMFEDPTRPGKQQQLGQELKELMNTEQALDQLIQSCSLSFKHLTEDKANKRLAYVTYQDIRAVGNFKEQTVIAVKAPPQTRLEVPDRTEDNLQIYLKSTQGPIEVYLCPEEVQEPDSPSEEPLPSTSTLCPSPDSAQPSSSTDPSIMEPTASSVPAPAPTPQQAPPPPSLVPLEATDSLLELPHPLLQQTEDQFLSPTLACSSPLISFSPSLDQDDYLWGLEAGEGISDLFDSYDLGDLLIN
Protocol: as §5

[13] = target: T2, recombinant E2F1 N1-His (64-301) with …; assay: band shift, recombinant E2F, inhibition of DNA binding
Protocol: Samples were run on 4% non denaturing polyacrylamide gel in 0.5% TBE at 4° C. Gels were exposed to X-ray films. […] The samples were then incubated for 10 minutes at 30° C. and cooled on ice. ^32P-labelled probe was added, the reaction mixtures were incubated for another 10 minutes at 30° C. and then cooled on ice.

[14] = target: E2F3 overexpressed in stable transfected 3T3 cells (nuclear extract) (UniProt O00716 1-465, limits assumed); assay: band shift, extract of 3T3 cells overexpressing E2F3; inhibition of DNA binding
Chain of E2F3 overexpressed in stable transfected 3T3 cells (nuclear extract) (O00716 whole entry): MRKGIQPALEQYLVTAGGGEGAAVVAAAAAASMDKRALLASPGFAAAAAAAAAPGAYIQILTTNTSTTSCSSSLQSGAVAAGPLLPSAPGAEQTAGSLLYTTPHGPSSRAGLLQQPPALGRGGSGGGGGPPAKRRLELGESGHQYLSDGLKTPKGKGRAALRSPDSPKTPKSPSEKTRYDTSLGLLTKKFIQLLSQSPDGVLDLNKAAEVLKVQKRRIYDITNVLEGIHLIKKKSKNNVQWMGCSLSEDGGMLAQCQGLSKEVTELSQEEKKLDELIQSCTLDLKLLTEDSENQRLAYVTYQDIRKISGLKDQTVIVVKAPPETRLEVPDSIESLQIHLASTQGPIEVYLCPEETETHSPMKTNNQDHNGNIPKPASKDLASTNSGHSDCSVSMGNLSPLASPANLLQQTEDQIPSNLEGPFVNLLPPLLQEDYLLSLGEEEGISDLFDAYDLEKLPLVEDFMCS
Protocol: as §5

[15] = target: E2F1 overexpressed in stable transfected 3T3 cells (nuclear extract) (UniProt Q01094 1-437, limits assumed); assay: band shift, extract of 3T3 cells overexpressing E2F1; inhibition of DNA binding
Chain of E2F1 overexpressed in stable transfected 3T3 cells (nuclear extract) (Q01094 whole entry): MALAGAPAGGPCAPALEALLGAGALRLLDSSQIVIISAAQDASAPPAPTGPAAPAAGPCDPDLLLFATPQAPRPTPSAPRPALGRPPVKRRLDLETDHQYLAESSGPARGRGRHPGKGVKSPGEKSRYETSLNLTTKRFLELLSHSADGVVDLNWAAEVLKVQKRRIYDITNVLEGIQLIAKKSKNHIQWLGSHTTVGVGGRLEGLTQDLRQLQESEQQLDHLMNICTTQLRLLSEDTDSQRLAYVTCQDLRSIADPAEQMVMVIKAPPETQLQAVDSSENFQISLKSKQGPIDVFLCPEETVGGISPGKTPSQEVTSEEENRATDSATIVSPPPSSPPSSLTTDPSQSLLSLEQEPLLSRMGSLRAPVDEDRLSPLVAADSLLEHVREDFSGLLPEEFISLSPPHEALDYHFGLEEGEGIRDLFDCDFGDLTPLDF
Protocol: as §5

[16] = target: E2F5 overexpressed in stable transfected 3T3 cells (nuclear extract) (UniProt Q15329 1-346, limits assumed); assay: band shift, extract of 3T3 cells overexpressing E2F5; inhibition of DNA binding
Chain of E2F5 overexpressed in stable transfected 3T3 cells (nuclear extract) (Q15329 whole entry): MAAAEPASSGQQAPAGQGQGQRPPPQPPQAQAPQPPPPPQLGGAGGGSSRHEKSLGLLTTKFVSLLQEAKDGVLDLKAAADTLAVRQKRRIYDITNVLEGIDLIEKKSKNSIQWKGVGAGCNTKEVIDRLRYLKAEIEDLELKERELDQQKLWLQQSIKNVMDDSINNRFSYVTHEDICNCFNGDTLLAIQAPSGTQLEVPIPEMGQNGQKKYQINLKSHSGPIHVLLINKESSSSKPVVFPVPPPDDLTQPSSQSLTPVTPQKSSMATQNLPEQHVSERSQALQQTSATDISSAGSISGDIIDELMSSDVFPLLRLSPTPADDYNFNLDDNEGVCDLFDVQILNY
Protocol: as §5

Molecule: CC[C@H](C)[C@H](NC(=O)[C@H](CCCNC(=N)N)NC(=O)[C@H](CO)NC(=O)CN)C(=O)N[C@@H](CC(C)C)C(=O)N[C@H](C(=O)N[C@@H](Cc1ccccc1)C(=O)N[C@@H](CCCNC(=N)N)C(=O)N[C@@H](CO)C(=O)NCC(=O)N[C@@H](CO)C(=O)N[C@@H](Cc1c[nH]c2ccccc12)C(=O)N[C@@H](Cc1ccc(O)cc1)C(=O)N[C@@H](C)C(=O)N[C@@H](CO)C(=O)O)[C@@H](C)O [SEQ ID NO:5, GSRILTFRSGSWYAS] (H-GSRILTFRSGSWYAS-OH)
IC50 (recombinant E2F1 and DP1): 50 to 100 µM

Molecule: WVRWAF [SEQ2-A5]
inhibition (recombinant E2F1 and DP1): 0

Molecule: WARWHF [SEQ2-A2]
inhibition (recombinant E2F1 and DP1): 0

Molecule: CC(C)[C@H](NC(=O)[C@@H](N)Cc1c[nH]c2ccccc12)C(=O)N[C@@H](CCCNC(=N)N)C(=O)N[C@@H](Cc1c[nH]c2ccccc12)C(=O)N[C@@H](Cc1c[nH]cn1)C(=O)N[C@@H](Cc1ccccc1)C(=O)O [SEQ ID NO:2, WVRWHF] (H-WVRWHF-OH)
IC50 (recombinant E2F1 and DP1): 50 to 100 µM

Molecule: MAP-4-SEQ ID NO:39-TAT: control peptide; SEQ ID NO:39 is SEQ ID NO:2 with 2 alanine substitutions at positions 1 and 4, i.e. AVRAHF (not fully specified (N-terminus, C-terminus); also: MAP-4 branched core) [reference compound]
inhibition of proliferation (HeLa cells): not displayed
inhibition of proliferation (U2OS (osteosarcoma)): not displayed
inhibition of proliferation [1]: not displayed
effect on transcription from CycA-Luciferase construct (CycA promoter): No effect
DNA laddering (HL60 cells [2]): No effects
hallmarks of apoptosis after staining (HL60 cells [3]): No effects
inhibition of cell proliferation / cell growth (HL60 cells [4]): no inhibitory effects
inhibition of proliferation [5]: not displayed

Molecule: CC[C@H](C)[C@H](N)C(=O)N[C@@H](Cc1c[nH]c2ccccc12)C(=O)N[C@@H](CC(C)C)C(=O)N[C@@H](CO)C(=O)NCC(=O)N[C@@H](CC(C)C)C(=O)N[C@@H](CO)C(=O)N[C@@H](CCCNC(=N)N)C(=O)NCC(=O)N[C@H](C(=O)N[C@@H](Cc1c[nH]c2ccccc12)C(=O)N[C@H](C(=O)N[C@@H](CO)C(=O)N[C@@H](Cc1ccccc1)C(=O)N1CCC[C@H]1C(=O)O)C(C)C)C(C)C [SEQ ID NO:4, IWLSGLSRGVWVSFP] (H-IWLSGLSRGVWVSFP-OH)
IC50 (recombinant E2F1 and DP1): 50 to 100 µM

Molecule: RILTFRSGSWYAS [SEQ5-5 (3-15) (RILTFRSGSWYAS)]
binding result [6]: binds

B1: peptide SEQ ID NO:2 (WVRWHF) (peptide)
peptide: WVRWHF
notes: Synthetic peptide in the band shift assays
binding result [7]: binds
concentration without inhibition [8]: > 500 µM
concentration without inhibition [9]: > 500 µM

Molecule: WVRWAF [SEQ2-A5 (WVRWAF)]
binding result [7]: binds

Molecule: WARWHF [SEQ2-A2 (WARWHF)]
binding result [7]: binds

B2: peptide SEQ ID NO:5 (GSRILTFRSGSWYAS) (peptide)
peptide: GSRILTFRSGSWYAS
notes: as for B1
binding result [6]: binds

Molecule: GSRILTFRSGSWAAS [SEQ5-A13 (GSRILTFRSGSWAAS)]
binding result [10]: binds

Other lines, results leading:

inhibition (recombinant E2F1 and DP1): 0
Molecule: WVAWHF [SEQ2-A3]

binding result [6]: binds
Molecule: SRILTFRSGSWY [SEQ5-8 (2-13) (SRILTFRSGSWY)]

binding result [7]: binds
Molecule: WVAWHF [SEQ2-A3 (WVAWHF)]

binding result [10]: binds
Molecule: GSAILTFRSGSWYAS [SEQ5-A3 (GSAILTFRSGSWYAS)]

IC50 [8]: 100 µM
IC50 [9]: 100 µM
Molecule: GSRILTFRSGSWYAS [peptide SEQ ID NO:5 (…)]

IC50 [11]: ~30 µM
IC50 [12]: ~30 µM
concentration at which inhibition of E2F-DNA binding was found [8]: 10 to 30 µM
fold lower IC50 (against the unbranched peptides) [13]: ~100 fold
IC50 [14]: ~30 µM
concentration at which inhibition of E2F-DNA binding was found [9]: 10 to 30 µM
IC50 [15]: ~30 µM
IC50 [16]: ~30 µM
B3: MAP4-SEQ ID NO:2 (branched molecule consisting of 4 copies of SEQ ID NO:2 linked by MAP, multiple antigen peptide) (peptide)
peptide: WVRWHF
modifications: also: tetravalent MAP core: 4 copies joined by C-terminus to Lys2-Lys-X core
notes: Branched tetravalent peptide on a lysine MAP core

IC50 [11]: ~30 µM
IC50 [12]: ~30 µM
IC50 [8]: 10 µM
IC50 [14]: ~30 µM
IC50 [9]: 10 µM
IC50 [15]: ~30 µM
IC50 [16]: ~30 µM
B4: MAP4-SEQ ID NO:5 (peptide)
peptide: GSRILTFRSGSWYAS
modifications: also: tetravalent MAP core: 4 copies joined by C-terminus to Lys2-Lys-X core
notes: as for B3
